T1: Abp1 SH3 (ABP1_YEAST), P15891
T1 chain: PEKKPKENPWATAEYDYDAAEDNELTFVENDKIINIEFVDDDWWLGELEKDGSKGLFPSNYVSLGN

B1: YHR099W 1329-1341 (peptide)
chain: SKQFLLSPIFAKP
B2: YAL047C 42-55 (peptide)
chain: SMTTRSSHNDPIKP
B3: YGL114W 7-19 (peptide)
chain: SQEVQRVPWDNKP
B4: YMR284W 586-598 (peptide)
chain: SIKEEKKPFDKKP
B5: YDR451C 284-297 (peptide)
chain: SSIFEDHHITPSKP
B6: YPR181C 246-258 (peptide)
chain: SPDQWSVPAGHRP
B7: YPR117W 1308-1321 (peptide)
chain: SKAGDEERFLPNRP
B8: YKR089C 884-896 (peptide)
chain: SQATKSSPFRSRP
B9: YER118C 2-14 (peptide)
chain: SISSKIRPTPRKP
B10: YBL054W 173-185 (peptide)
chain: SSAIEDSPPDFKP
B11: YGR154C 61-73 (peptide)
chain: SKGARFLPAPHRP
B12: YOR290C 408-421 (peptide)
chain: SNKTHTEQNNPPKP
B13: YDR538W 41-54 (peptide)
chain: SKEVTRASTSPPRP
B14: YDL180W 227-240 (peptide)
chain: SNNVYSSEYHPIKP
B15: YCR025C 79-91 (peptide)
chain: SLHWTGIPFLGKP
B16: YDR273W 125-138 (peptide)
chain: SPEENTDFALPMKP
B17: YPL141C 761-773 (peptide)
chain: SKRKPSPPSQRRP
B18: YMR280C 1387-1400 (peptide)
chain: SSGPSASHRGPRRP
B19: YHR209W 240-253 (peptide)
chain: SIYTSWARDNPSKP
B20: YOR329C 434-447 (peptide)
chain: SNGAIQTGLQPLKP
B21: YDR178W 31-44 (peptide)
chain: SLTIPFLPVLPQKP
B22: YNL307C 267-279 (peptide)
chain: SNPAYDGPLFSKP
B23: YLR047C 278-291 (peptide)
chain: SLLEFPLTDLPKKP
B24: YLR155C 216-229 (peptide)
chain: SNDDVEFYYPPVKP
B25: YDR419W 378-390 (peptide)
chain: SRGRYGLPLSSRP
B26: YNL230C 233-245 (peptide)
chain: SSSPKKGPLSIKP
B27: YOR266W 165-178 (peptide)
chain: SLPTSSSAKAPLRP
B28: YER005W 601-613 (peptide)
chain: SQSANLAPSNLRP
B29: YPL137C 250-262 (peptide)
chain: SPMRGVAPTASKP
B30: YLR144C 4-16 (peptide)
chain: SRQAIPPPVPNRP
B31: YBL058W 387-400 (peptide)
chain: SRNFTLNYAFPIKP
B32: YJL041W 617-629 (peptide)
chain: SLKLNSKPVELKP
B33: YLR079W 24-37 (peptide)
chain: SSALMQGQKTPQKP
B34: YPR025C 204-217 (peptide)
chain: SLKFSLLNHHPYKP
B35: YIL056W 426-439 (peptide)
chain: SNRATLLTTLPMKP
B36: YJL076W 1069-1081 (peptide)
chain: SSILHDLPRKVRP
B37: YLR335W 355-367 (peptide)
chain: SIPSKNTPDASKP
B38: YJR035W 262-274 (peptide)
chain: SQRSSDLPEWRRP
B39: YJL036W 11-24 (peptide)
chain: SKAKDKARGNPEKP
B40: YKL015W 850-862 (peptide)
chain: SNIVSILPEGAKP
B41: YGR019W 2-15 (peptide)
chain: SISEQYYPEEPTKP
B42: YJL147C 308-321 (peptide)
chain: SIQSKIMLESPKKP
B43: YJR138W 1326-1339 (peptide)
chain: SNASVADAKEPSRP
B44: YAL019W 19-32 (peptide)
chain: SSPTKVASSSPLKP
B45: YNL014W 670-682 (peptide)
chain: SNMTFQYPGTTKP
B46: YHR208W 26-39 (peptide)
chain: SKLKITRNPNPSKP
B47: YPR008W 490-502 (peptide)
chain: SNYITDRPFTRKP
B48: YGL092W 308-320 (peptide)
chain: SPNEIFSPSYSKP
B49: YER131W 88-101 (peptide)
chain: SREDRKNRAPPQRP
B50: YDR158W 154-167 (peptide)
chain: SNSSTAGLVAPLKP
B51: YOR023C 198-210 (peptide)
chain: SNGLLLEPSALRP
B52: YNL152W 392-404 (peptide)
chain: SRKNSMSPTRKRP
B53: YKL077W 80-92 (peptide)
chain: SLEHDGRPKTIKP
B54: YBR102C 22-35 (peptide)
chain: SPAKQKTPPSPAKP
B55: YGL201C 3-15 (peptide)
chain: SPFPADTPSSNRP
B56: YOR341W 710-722 (peptide)
chain: SKIVTLPPTIFKP
B57: YER116C 142-154 (peptide)
chain: SPMLDAAPPTTKP
B58: YNL298W 398-411 (peptide)
chain: SPSPSPSPLNPYRP

Target: T1, Abp1 SH3 (ABP1_YEAST), P15891
Assay: SPOT array

| Binder | normalised SPOT signal, Boehringer light units (BLU); mean over the file's lines of this peptide |
| --- | --- |
| B1 | 169 |
| B2 | 205 |
| B3 | 86.2 |
| B4 | 92.3 |
| B5 | 0 |
| B6 | 65.3 |
| B7 | 144 |
| B8 | 1250 |
| B9 | 15700 |
| B10 | 85.8 |
| B11 | 1020 |
| B12 | 83.8 |
| B13 | 226 |
| B14 | 12.1 |
| B15 | 116 |
| B16 | 98.8 |
| B17 | 6670 |
| B18 | 390 |
| B19 | 178 |
| B20 | 70.4 |

| Binder | normalised SPOT signal, Boehringer light units (BLU); mean over the file's lines of this peptide |
| --- | --- |
| B21 | 129 |
| B22 | 95.6 |
| B23 | 118 |
| B24 | 92.8 |
| B25 | 327 |
| B26 | 347 |
| B27 | 37.9 |
| B28 | 95.4 |
| B29 | 2700 |
| B30 | 2950 |
| B31 | 80.1 |
| B32 | 27.9 |
| B33 | 335 |
| B34 | 186 |
| B35 | 243 |
| B36 | 786 |
| B37 | 64.2 |
| B38 | 377 |
| B39 | 124 |
| B40 | 106 |

| Binder | normalised SPOT signal, Boehringer light units (BLU); mean over the file's lines of this peptide |
| --- | --- |
| B41 | 60.4 |
| B42 | 289 |
| B43 | 46 |
| B44 | 104 |
| B45 | 144 |
| B46 | 115 |
| B47 | 409 |
| B48 | 66.1 |
| B49 | 109 |
| B50 | 61.1 |
| B51 | 0 |
| B52 | 209 |
| B53 | 56.6 |
| B54 | 54.6 |
| B55 | 114 |
| B56 | 159 |
| B57 | 158 |
| B58 | 21.8 |
